Measurements taken from publication PMC5714350.

How the values were obtained:
Conditions in all cases: other: dynamic light scattering
[1] = dynamic light scattering; FXN^81-210 2.5 mg/ml (0.17 mM) with ammonium iron (II) sulfate, aerobic, Fe2+:protein 2:1, 4:1, 5:1, 6:1, 10:1; room temperature; profiles every 5 min for 2 h; volume distribution
[2] = dynamic light scattering; FXN^81-210 with Fe2+ 6:1 for 15 min, then chelator (deferiprone, DFO or BIPY) at 3 times the amount of iron; room temperature
[3] = dynamic light scattering; FXN^81-210 with ferric iron (FeCl3 in HEPES pH 7.5), Fe3+:protein 6:1, 8:1, 10:1

For “Human frataxin isoform 81–210 (FXN^81-210)”, the % of particles in the monomer range (hydrodynamic radius 1.6–2.1 nm), with iron (Fe2+ 6:1) [1] was 92%, the % of particles with hydrodynamic radius 6–8.5 nm (oligomers), with iron (Fe2+ 6:1) [1] was 8% and the “% of particles with mean hydrodynamic radius of about 5 nm (oligomers), with iron (Fe2+ 10:1, 60 min)” value [1] was “The major fraction of the oligomers (88%)”. The % of particles in the monomer range (hydrodynamic radius 1.6–2.1 nm), with iron (Fe2+ 6:1) and BIPY [2] was 92%, the % of particles in the monomer range (hydrodynamic radius 1.6–2.1 nm), with iron (Fe2+ 6:1) and deferiprone [2] was 97% and the % of particles with hydrodynamic radius 6–8.5 nm (oligomers), with iron (Fe2+ 6:1) and BIPY [2] was 8%. It also gave a % of particles with hydrodynamic radius 6–8.5 nm (oligomers), with iron (Fe2+ 6:1) and DFO [2] of 95%, a % of particles with hydrodynamic radius 8.5–14 nm (oligomers), with iron (Fe2+ 6:1) and deferiprone [2] of 3% and a % of particles with hydrodynamic radius 15–25 nm (oligomers), with iron (Fe2+ 6:1) and DFO [2] of 5%. The % of particles in the monomer range (hydrodynamic radius 1.6–3 nm), with iron (Fe3+ 6:1) [3] was 97%, the % of particles with hydrodynamic radius 6–8.5 nm (oligomers), with iron (Fe3+ 8:1) [3] was 84.4% and the % of particles with hydrodynamic radius 8.5–14 nm (oligomers), with iron (Fe3+ 6:1) [3] was 3%. For the same substance, the % of particles with hydrodynamic radius 8.5–14 nm (oligomers), with iron (Fe3+ 10:1) [3] was 86.8% and the % of particles with hydrodynamic radius 15–25 nm (oligomers), with iron (Fe3+ 8:1) [3] was 15.6%.
